Data on three substances can be found in US20210017257A1.

The target of assay [1] is SpA in the cell wall of Staphylococcus aureus (strain ATCC #25923 and clinical isolate OOX) (Staphylococcus aureus) (UniProt P38507). The assay can be described thus: flow cytometry: S. aureus strain ATCC #25923 incubated with biotinylated antibody (negative control), then streptavidin-APC. (Flow cytometry measures light scatter and fluorescence of single cells or particles in a stream.)

Assay [2] shares this target. The assay can be described thus: flow cytometry: S. aureus clinical isolate OOX incubated with biotinylated antibody (negative control), then streptavidin-APC.
The target in assay [3] is MABp1-IgG1. The assay can be described thus: flow cytometry: S. aureus clinical isolate OOX incubated with unlabeled MABp1 (negative control), then biotinylated recombinant Fcγ receptor 1, then streptavidin-APC.
Assay [4] has as its target MABp1-IgG1. Briefly: flow cytometry: S. aureus strain ATCC #25923 incubated with unlabeled MABp1 (negative control), then biotinylated recombinant Fcγ receptor 1, then streptavidin-APC.
For assay [5], the target named is SpA in the cell wall of Staphylococcus aureus (strain ATCC #25923 and clinical isolate OOX) (Staphylococcus aureus) (UniProt P38507). The assay can be described thus: flow cytometry: S. aureus strain ATCC #25923 by the legend (sheet prints 25935) pre-incubated with human sera for 15 minutes, then biotinylated MABp1-IgG3 (isotype-matched negative control), then streptavidin-APC.

The target is the same in assay [6]. The assay can be described thus: flow cytometry: S. aureus clinical isolate OOX pre-incubated with human sera for 15 minutes, then biotinylated MABp1-IgG3 (isotype-matched negative control), then streptavidin-APC.

Chain of biotinylated recombinant Fcγ receptor 1 (P12314 16-292): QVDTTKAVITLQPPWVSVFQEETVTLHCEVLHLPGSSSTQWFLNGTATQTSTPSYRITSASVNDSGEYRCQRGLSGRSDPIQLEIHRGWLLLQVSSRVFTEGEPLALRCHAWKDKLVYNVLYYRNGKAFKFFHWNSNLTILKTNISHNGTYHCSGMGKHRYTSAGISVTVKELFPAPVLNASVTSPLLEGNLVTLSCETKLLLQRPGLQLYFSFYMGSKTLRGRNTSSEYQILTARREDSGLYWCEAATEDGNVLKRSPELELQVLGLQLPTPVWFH
Chain of MABp1-IgG3 (antibody) (VH): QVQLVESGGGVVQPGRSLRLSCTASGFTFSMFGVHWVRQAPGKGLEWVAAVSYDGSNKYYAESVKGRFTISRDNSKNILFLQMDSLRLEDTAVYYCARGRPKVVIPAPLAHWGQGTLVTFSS
Chain of MABp1-IgG3 (antibody) (VL): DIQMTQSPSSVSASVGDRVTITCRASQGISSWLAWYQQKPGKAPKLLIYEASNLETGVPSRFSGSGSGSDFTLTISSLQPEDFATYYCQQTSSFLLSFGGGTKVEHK

With MABp1-IgG1 (antibody), the Mean:FL4-H was 46.7 in assay [1] and 29.8 in assay [2].

Turning to biotinylated recombinant Fcγ receptor 1, the Mean:FL4-H amounted to 18.6 in the assay with MABp1-IgG1 [3] and 19.8 with MABp1-IgG1 [4].

With MABp1-IgG3 (antibody), the Mean:FL4-H in assay [5] came out at 10.3; in assay [6], 19.1.
